Residue numbers refer to the chain shown, from its start.
B1: CD3 × CD33-BspAb96 (bispecific antibody)
chain 1: SYELTQPPSVSVSPGQTARITCSGDALPKKYAYWYQQKSGQAPVLVIYEDSKRPSGIPERFSGSSSGTMATLTISGAQVEDEADYYCYSTDSSGNHSWVFGCGTKLTVLGGGGSGGGGSGGGGSGGGGSEVQLVESGGGLVKPGGSLRLSCAASGFTFSSYSMNWVRQAPGKCLEWVSSVNSRGSYIYYADSVKGRFTISRDNAKDSLYLQMNSLRADDTAVYYCARDRRELLLDYWGQGTLVTVSSDKTHTCPPCPAPEFEGGPSVFLFPPKPKDTLMISRTPEVTCVVVDVSHEDPEVKFNWYVDGVEVHNAKTKPREEQYNSTYRVVSVLTVLHQDWLNGKEYKCKVSNKALPASIEKTISKAKGQPREPQVYTLPPCREEMTKNQVSLWCLVKGFYPSDIAVEWESNGQPENNYKTTPPVLDSDGSFFLYSKLTVDKSRWQQGNVFSCSVMHEALHNHYTQKSLSLSPGK
chain 2: EVQLVQSGAEVKKPGSSVKVSCKASGYTITDSNIHWVRQAPGQSLEWIGYIYPYNGGTDYNQKFKNRATLTVDNPTNTAYMELSSLRSEDTAFYYCVNGNPWLAYWGQGTLVTVSSASTKGPSVFPLAPSSKSTSGGTAALGCLVKDYFPEPVTVSWNSGALTSGVHTFPAVLQSSGLYSLSSVVTVPSSSLGTQTYICNVNHKPSNTKVDKRVEPKSCDKTHTCPPCPAPEFEGGPSVFLFPPKPKDTLMISRTPEVTCVVVDVSHEDPEVKFNWYVDGVEVHNAKTKPREEQYNSTYRVVSVLTVLHQDWLNGKEYKCKVSNKALPASIEKTISKAKGQPREPQVCTLPPSREEMTKNQVSLSCAVKGFYPSDIAVEWESNGQPENNYKTTPPVLDSDGSFFLVSKLTVDKSRWQQGNVFSCSVMHEALHNRFTQKSLSLSPGK
chain 3: DIQLTQSPSTLSASVGDRVTITCRASESLDNYGIRFLTWFQQKPGKAPKLLMYAASNQGSGVPSRFSGSGSGTEFTLTISSLQPDDFATYYCQQTKEVPWSFGQGTKVEVKRTVAAPSVFIFPPSDEQLKSGTASVVCLLNNFYPREAKVQWKVDNALQSGNSQESVTEQDSKDSTYSLSSTLTLSKADYEKHKVYACEVTHQGLSSPVTKSFNRGEC
B2: CD3 × CD33-BspAb97 (bispecific antibody)
chain 1: SYELTQPPSVSVSPGQTARITCSGDALPKKYAYWYQQKSGQAPVLVIYEDSKRPSGIPERFSGSSSGTMATLTISGAQVEDEADYYCYSTDSSGNHWVFGCGTKLTVLGGGGSGGGGSGGGGSGGGGSEVQLVESGGGLVKPGGSLRLSCAASGFTFSNYYMNWVRQAPGKCLERVSSISSSSNYIYYADSVKGRFTISRDNAKNSLYLQMNSLRAEDTAVYYCARDRRELPLDYWGQGTVVTVSSDKTHTCPPCPAPEFEGGPSVFLFPPKPKDTLMISRTPEVTCVVVDVSHEDPEVKFNWYVDGVEVHNAKTKPREEQYNSTYRVVSVLTVLHQDWLNGKEYKCKVSNKALPASIEKTISKAKGQPREPQVYTLPPCREEMTKNQVSLWCLVKGFYPSDIAVEWESNGQPENNYKTTPPVLDSDGSFFLYSKLTVDKSRWQQGNVFSCSVMHEALHNHYTQKSLSLSPGK
chain 2: B1 chain 2
chain 3: B1 chain 3
B3: CD3 × CD33-BspAb98 (bispecific antibody)
scFv-Fc: NFMLTQPHSVSESPGKTVTISCTRSSGSIASNYVQWYQQRPGSSPTTVIYEDNQRPSGVPDRFSGSIDSSSNSASLTISGLKTEDEADYYCQSYDSSNRVFGCGTKLTVLGGGGSGGGGSGGGGSGGGGSEVHLVESGGGLVKPGGSLRLSCAASGFTFSRYSMNWVRQAPGKCLEWVSSISRSSSYIYYADSVKGRFTISRDNAKNSLYLQMNSLRAEDTAVYYCAREPRTLGMDYWGQGILVTVSSGGGGSDKTHTCPPCPAPEFEGGPSVFLFPPKPKDTLMISRTPEVTCVVVDVSHEDPEVKFNWYVDGVEVHNAKTKPREEQYNSTYRVVSVLTVLHQDWLNGKEYKCKVSNKALPASIEKTISKAKGQPREPQVYTLPPCREEMTKNQVSLWCLVKGFYPSDIAVEWESNGQPENNYKTTPPVLDSDGSFFLYSKLTVDKSRWQQGNVFSCSVMHEALHNHYTQKSLSLSPGK
heavy: B1 chain 2
light: B1 chain 3
notes: KiH heterodimer
B4: CD3 × CD33-BspAb99 (bispecific antibody)
scFv-Fc: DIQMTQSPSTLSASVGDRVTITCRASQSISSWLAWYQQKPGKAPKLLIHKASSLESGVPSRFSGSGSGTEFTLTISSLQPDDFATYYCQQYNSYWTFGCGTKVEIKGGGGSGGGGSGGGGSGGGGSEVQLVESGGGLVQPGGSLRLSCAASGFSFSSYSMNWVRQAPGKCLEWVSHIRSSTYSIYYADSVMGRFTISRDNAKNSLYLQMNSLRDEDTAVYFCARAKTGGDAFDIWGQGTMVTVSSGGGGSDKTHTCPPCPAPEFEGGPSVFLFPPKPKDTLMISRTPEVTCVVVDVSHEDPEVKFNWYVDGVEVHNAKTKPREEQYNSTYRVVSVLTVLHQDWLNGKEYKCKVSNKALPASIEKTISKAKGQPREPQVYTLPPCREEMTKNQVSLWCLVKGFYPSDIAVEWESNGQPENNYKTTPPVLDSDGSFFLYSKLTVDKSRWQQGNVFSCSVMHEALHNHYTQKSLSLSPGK
heavy: B1 chain 2
light: B1 chain 3
notes: KiH heterodimer
B5: CD3 × CD33-BspAb100 (bispecific antibody)
scFv-Fc: EVQLVESGGGLVKPGGSLRLSCAASGFTFSNYYMNWVRQAPGKCLERVSSISSSSNYIYYADSVKGRFTISRDNAKNSLYLQMNSLRAEDTAVYYCARDRRELPLDYWGQGTVVTVSSGGGGSGGGGSGGGGSGGGGSSYELTQPPSVSVSPGQTARITCSGDALPKKYAYWYQQKSGQAPVLVIYEDSKRPSGIPERFSGSSSGTMATLTISGAQVEDEADYYCYSTDSSGNHWVFGCGTKLTVLGGGGSDKTHTCPPCPAPEFEGGPSVFLFPPKPKDTLMISRTPEVTCVVVDVSHEDPEVKFNWYVDGVEVHNAKTKPREEQYNSTYRVVSVLTVLHQDWLNGKEYKCKVSNKALPASIEKTISKAKGQPREPQVYTLPPCREEMTKNQVSLWCLVKGFYPSDIAVEWESNGQPENNYKTTPPVLDSDGSFFLYSKLTVDKSRWQQGNVFSCSVMHEALHNHYTQKSLSLSPGK
heavy: B1 chain 2
light: B1 chain 3
notes: KiH heterodimer
B6: CD3 × CD33-BspAb101 (bispecific antibody)
scFv-Fc: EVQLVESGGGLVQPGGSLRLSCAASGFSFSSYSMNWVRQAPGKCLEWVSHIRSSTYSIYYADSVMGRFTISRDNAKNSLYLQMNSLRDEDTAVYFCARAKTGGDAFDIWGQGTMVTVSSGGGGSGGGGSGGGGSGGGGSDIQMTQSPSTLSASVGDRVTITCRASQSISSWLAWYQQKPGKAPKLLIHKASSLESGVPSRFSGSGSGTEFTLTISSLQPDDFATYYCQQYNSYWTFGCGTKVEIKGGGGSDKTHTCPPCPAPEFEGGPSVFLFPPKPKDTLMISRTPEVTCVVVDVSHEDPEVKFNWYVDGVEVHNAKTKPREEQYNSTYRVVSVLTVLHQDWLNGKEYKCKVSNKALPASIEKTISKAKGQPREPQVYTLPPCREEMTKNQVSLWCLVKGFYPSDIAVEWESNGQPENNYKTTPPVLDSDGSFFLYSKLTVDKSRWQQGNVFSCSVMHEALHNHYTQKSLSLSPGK
heavy: B1 chain 2
light: B1 chain 3
notes: KiH heterodimer
B7: CD3 × CD33-BspAb104 (bispecific antibody)
scFv-Fc: QSALTQPASVSGSPGQSITISCTGTSSDVGSYNLVSWYQQHPGKAPKLMIYEDIRRPSGVSNRFSASKSGDTASLTISGLQAEDEADYYCSSYAGSTTFAIFGCGTKLTVLGGGGSGGGGSGGGGSGGGGSEVQLVQSGAEVKKPGESLKISCKGSEYSFTTYWIAWVRQMPGKCLEWMGIIYPGDSDTTYSPSFQGQVTISADKSISIAFLQWSSLKASDTAMYYCARQGELDAFDIWGQGTMVTVSSGGGGSDKTHTCPPCPAPEFEGGPSVFLFPPKPKDTLMISRTPEVTCVVVDVSHEDPEVKFNWYVDGVEVHNAKTKPREEQYNSTYRVVSVLTVLHQDWLNGKEYKCKVSNKALPASIEKTISKAKGQPREPQVYTLPPCREEMTKNQVSLWCLVKGFYPSDIAVEWESNGQPENNYKTTPPVLDSDGSFFLYSKLTVDKSRWQQGNVFSCSVMHEALHNHYTQKSLSLSPGK
heavy: B1 chain 2
light: B1 chain 3
notes: KiH heterodimer
B8: CD3 × CD33-BspAb113 (bispecific antibody)
scFv-Fc: NFMLTQPHSVSESPGKTVTISCTRSSGSIASNYVQWYQQRPGSSPTTVIYEDNQRPSGVPDRFSGSIDSSSNSASLTISGLKTEDEADYYCQSYDSSNRVFGCGTKLTVLGGGGSGGGGSGGGGSGGGGSEVQLVESGGGLVKFGGSLRLSCAASGFTFSRYSMNWVRQAPGKCLEWVSSISSSSSYKYYADSVKGRFTISRDNAKNSLYLQMNSLRAEDTAVYYCAREGGNSHGMDVWGQGTTVTVSSGGGGSDKTHTCPPCPAPEFEGGPSVFLFPPKPKDTLMISRTPEVTCVVVDVSHEDPEVKFNWYVDGVEVHNAKTKPREEQYNSTYRVVSVLTVLHQDWLNGKEYKCKVSNKALPASIEKTISKAKGQPREPQVYTLPPCREEMTKNQVSLWCLVKGFYPSDIAVEWESNGQPENNYKTTPPVLDSDGSFFLYSKLTVDKSRWQQGNVFSCSVMHEALHNHYTQKSLSLSPGK
heavy: B1 chain 2
light: B1 chain 3
notes: KiH heterodimer
B9: CD3 × CD33-BspAb119 (bispecific antibody)
scFv-Fc: B8 scFv-Fc with L134V, V135A, F144P, S185G, K188T, A227V, G230R, N232K, S233G, H234A
heavy: B1 chain 2
light: B1 chain 3
notes: KiH heterodimer

molecular target: T1, human CD3 (TCR/CD3 complex on the cell surface) (human, UniProt P07766 23-207; P04234 22-171; P09693 23-182); test: flow cytometry, Pan-T cells, 10 ug/mL
T1 construct: whole, on cells; Native CD3 on human Pan-T cells or Jurkat wild-type cells; also called CD3 on Pan-T cells; CD3 on Jurkat WT cells
T1 sequence (P07766 23-207, chain 1 of 3): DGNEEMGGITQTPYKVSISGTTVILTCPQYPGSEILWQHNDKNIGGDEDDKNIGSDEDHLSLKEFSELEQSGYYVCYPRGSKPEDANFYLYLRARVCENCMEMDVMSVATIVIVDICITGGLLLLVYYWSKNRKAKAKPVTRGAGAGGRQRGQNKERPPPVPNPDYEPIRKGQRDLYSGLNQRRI
T1 sequence (P04234 22-171, chain 2 of 3): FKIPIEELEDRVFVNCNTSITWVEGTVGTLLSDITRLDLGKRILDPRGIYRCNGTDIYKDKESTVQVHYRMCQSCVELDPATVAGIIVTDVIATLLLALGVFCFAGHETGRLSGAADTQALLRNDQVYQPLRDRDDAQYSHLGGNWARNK
T1 sequence (P09693 23-182, chain 3 of 3): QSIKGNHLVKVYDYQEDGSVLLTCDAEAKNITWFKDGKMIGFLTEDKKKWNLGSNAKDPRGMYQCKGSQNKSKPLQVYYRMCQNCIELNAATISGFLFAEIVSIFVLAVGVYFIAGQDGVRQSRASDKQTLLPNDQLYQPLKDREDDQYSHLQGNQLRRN

| Binder | % Positive [%] | gMFI [gMFI] |
| --- | --- | --- |
| B1 | 95.8 | 17900 |
| B2 | 98.5 | 53000 |
| B3 | 99.6 | 278000 |
| B4 | 1.5 | 1830 |
| B5 | 99.5 | 348000 |
| B6 | 1.6 | 2150 |
| B7 | 1.6 | 2090 |
| B8 | 99.5 | 111000 |
| B9 | 99.7 | 166000 |

molecular target: T1, human CD3 (TCR/CD3 complex on the cell …); test: flow cytometry, Jurkat WT gMFI over Jurkat KO gMFI, 1 ug/mL

| Binder | Jurkat WT/KO (Fold) [fold] |
| --- | --- |
| B1 | 1.1 |
| B2 | 1.7 |
| B3 | 11.2 |
| B4 | 0.9 |
| B5 | 9.3 |
| B6 | 0.8 |
| B7 | 0.8 |
| B8 | 3.9 |
| B9 | 7.8 |

molecular target: T1, human CD3 (TCR/CD3 complex on the cell …); test: flow cytometry, Jurkat WT gMFI over Jurkat KO gMFI, 10 ug/mL

| Binder | Jurkat WT/KO (Fold) [fold] |
| --- | --- |
| B1 | 3.5 |
| B2 | 3.7 |
| B3 | 12.7 |
| B4 | 1 |
| B5 | 11.9 |
| B6 | 0.9 |
| B7 | 1 |
| B8 | 5.9 |
| B9 | 9 |

molecular target: T1, human CD3 (TCR/CD3 complex on the cell …); test: flow cytometry, Jurkat WT cells, 1 ug/mL

| Binder | gMFI [gMFI] |
| --- | --- |
| B1 | 2370 |
| B2 | 3890 |
| B3 | 43500 |
| B4 | 1660 |
| B5 | 30000 |
| B6 | 1780 |
| B7 | 1700 |
| B8 | 10100 |
| B9 | 22400 |

molecular target: T1, human CD3 (TCR/CD3 complex on the cell …); test: flow cytometry, Pan-T cells, 1 ug/mL

| Binder | % Positive [%] | gMFI [gMFI] |
| --- | --- | --- |
| B1 | 8.2 | 3700 |
| B2 | 66.3 | 9270 |
| B3 | 99.8 | 197000 |
| B4 | 1.2 | 1810 |
| B5 | 99.5 | 240000 |
| B6 | 1.8 | 1910 |
| B7 | 1.2 | 2020 |
| B8 | 96.2 | 24900 |
| B9 | 99.8 | 88200 |

molecular target: T1, human CD3 (TCR/CD3 complex on the cell …); test: flow cytometry, Jurkat WT cells, 10 ug/mL

| Binder | gMFI [gMFI] |
| --- | --- |
| B1 | 7470 |
| B2 | 8450 |
| B3 | 47700 |
| B4 | 1670 |
| B5 | 39600 |
| B6 | 1940 |
| B7 | 1790 |
| B8 | 16000 |
| B9 | 25700 |

— patent publication US20260167721A1 (ABLEXIS, published 2026)
